Measurements as given in WO2021102332A1 (dated 2021).
Changes are numbered by the printed parent chain. Numbers in names are those of the source.

T1: LRRC15 (leucine-rich repeat-containing protein 15) (human, UniProt Q8TF66 22-538, limits assumed)
T1 construct: The KD sentences say only 'LRRC15'; also called human LRRC15
T1 sequence (looked up): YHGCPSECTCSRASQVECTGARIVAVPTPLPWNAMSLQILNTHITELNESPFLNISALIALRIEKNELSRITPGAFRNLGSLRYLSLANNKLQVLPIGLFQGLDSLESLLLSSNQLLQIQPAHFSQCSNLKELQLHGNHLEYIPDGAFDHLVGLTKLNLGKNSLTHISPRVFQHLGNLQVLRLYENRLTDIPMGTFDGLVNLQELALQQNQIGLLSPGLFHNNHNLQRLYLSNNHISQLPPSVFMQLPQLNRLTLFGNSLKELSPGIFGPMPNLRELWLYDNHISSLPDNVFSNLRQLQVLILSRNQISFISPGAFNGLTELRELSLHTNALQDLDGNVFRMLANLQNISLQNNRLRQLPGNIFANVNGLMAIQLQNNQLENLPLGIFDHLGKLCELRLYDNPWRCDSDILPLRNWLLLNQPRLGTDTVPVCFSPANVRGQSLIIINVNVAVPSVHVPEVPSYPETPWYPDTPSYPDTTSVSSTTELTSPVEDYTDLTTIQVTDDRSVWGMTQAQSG

B1: hzJ66 VHv1 / hzJ66 VLv1 (antibody, V domains shown)
VH: QVQLVQSGAEVKKPGASVKVSCKASGYTFTNYWIGWVRQAPGQGLEWMGDIYPRSGYTNYNEKFKGRVTMTRDTSTSTVYMELSSLRSEDTAVYYCARSGGMYYFDYWGQGTTVTVSS
VL: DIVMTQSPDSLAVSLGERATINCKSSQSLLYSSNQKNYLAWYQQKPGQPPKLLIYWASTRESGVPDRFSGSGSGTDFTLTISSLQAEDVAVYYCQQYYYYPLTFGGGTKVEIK
notes: The KD sentence says only 'the parent humanized ... antibody'; also called parent humanized antibody (J66)
B2: mAb J66 (mouse) (antibody, V domains shown)
VH: QVQMKESGTELVRPGTSVKMSCKAAGYTFTNYWIGWVKQRPGHGPEWIGDIYPRSGYTNYNEKFKGKATLTADTSSSTAYMQLSSLTSEDSTIYFCARSGGMYYFDYWGQGTTLTVSS
VL: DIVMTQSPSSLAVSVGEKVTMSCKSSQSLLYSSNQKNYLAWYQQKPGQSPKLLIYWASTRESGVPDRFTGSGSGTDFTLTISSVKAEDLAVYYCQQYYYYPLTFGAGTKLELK
notes: From hybridomas of immunized mice; also called parent mouse antibody; Bin A2
B3: hzK713 VHv1 / hzK713 VLv1 (antibody, V domains shown)
VH: QVQLVQSGAEVKKPGASVKVSCKASGYTFTDYYMNWVRQAPGQRLEWMGRVSPSNGGTNYNQKFRGRVTITRDTSASTAYMELSSLRSEDTAVYYCARRGAGYSYYAMDYWGQGTTVTVSS
VL: DIVMTQSPDSLAVSLGERATINCRASESVDSYGNSLMYWYQQKPGQPPKLLIYLASNLESGVPDRFSGSGSGTDFTLTISSLQAEDVAVYYCQQNNEDPLTFGGGTKVEIK
notes: Expressed in CHO cells; also called parent antibody comprising hzK713 VLv1 in combination with heavy chain hzK713 VHv1
B4: hzK713 VHv3 (N55S) / hzK713 VLv1 (antibody, V domains shown)
VH: B3 VH with N55S
VL: B3 VL
notes: The KD sentence prints 'hzJ48 VHv2-v4', read as hzK713 VHv2-v4; also called printed in the KD sentence as hzJ48 VHv3 with hzK713 VLv1
B5: hzK713 VHv2 (N55Q) / hzK713 VLv1 (antibody, V domains shown)
VH: B3 VH with N55Q
VL: B3 VL
notes: The KD sentence prints 'hzJ48 VHv2-v4', read as hzK713 VHv2-v4; also called printed in the KD sentence as hzJ48 VHv2 with hzK713 VLv1
B6: hzK713 VHv4 (G56A) / hzK713 VLv1 (antibody, V domains shown)
VH: B3 VH with G56A
VL: B3 VL
notes: The KD sentence prints 'hzJ48 VHv2-v4', read as hzK713 VHv2-v4; also called printed in the KD sentence as hzJ48 VHv4 with hzK713 VLv1
B7: hzJ66 VHv2 (M102L) / hzJ66 VLv1 (antibody, V domains shown)
VH: B1 VH with M102L
VL: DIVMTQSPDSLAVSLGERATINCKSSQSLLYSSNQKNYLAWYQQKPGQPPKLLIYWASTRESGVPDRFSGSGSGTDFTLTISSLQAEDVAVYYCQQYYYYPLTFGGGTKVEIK
notes: also called printed as heavy chain variant hzJ66 VLv2 with light chain hzJ66 VHv1
B8: hzJ66 VHv2 (M102L) / hzJ66 VLv1.1 (N22S) (antibody, V domains shown)
VH: B1 VH with M102L
VL: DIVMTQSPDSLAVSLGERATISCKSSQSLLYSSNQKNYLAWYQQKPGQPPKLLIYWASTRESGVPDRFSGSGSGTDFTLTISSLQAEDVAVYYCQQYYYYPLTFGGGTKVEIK
notes: also called printed as heavy chain variant hzJ66 VLv2 with light chain hzJ66 v1.1
B9: hzF36 VHv6.2 (D54Q) / hzF36 VLv1 (antibody, V domains shown)
VH: QVQLVQSGAEVKKPGASVKVSCKASGYTFTSFVIHWVRQAPGQGLEWMGYIYNQGTKYNERFRGRATLTSDKSTSTVYMELSSLRSEDTAVYYCARDYYFDYWGQGTLVTVSS
VL: DIVMTQSPDSLAVSLGERATINCRASESVDYYGISFMNWYQQKPGQPPKLLIYAASNQGSGVPDRFSGSGSGTDFTLTISSLQAEDVAVYYCQQSKEVPYTFGGGTKVEIK
B10: hzF36 VHv6 / hzF36 VLv1.1 (M4L) (antibody, V domains shown)
VH: B9 VH with Q54D
VL: B9 VL with M4L
notes: also called parent heavy chain hzF36 VHv6 in combination with light chain hzF36 VLv1.1
B11: hzF36 VHv6.4 (G55A) / hzF36 VLv1 (antibody, V domains shown)
VH: B9 VH with Q54D, G55A
VL: B9 VL
B12: hzJ48 VHv3 / hzJ48 VLv1.1 (N92S) (antibody, V domains shown)
VH: QVQLVQSGAEVKKPGASVKVSCKASGYTFTDYYINWVRQAPGQGLEWMGWIYPGSGNTKYAQKFQGRVTMTRDTSTSTVYMELSSLRSEDTAVYYCARWGYGAYFTYWGQGTLVTVSS
VL: DIQMTQSPSSLSASVGDRVTITCKASQNVGINVAWYQQKPGKAPKLLIYSASYRSSGVPSRFSGSGSGTDFTLTISSLQPEDFATYYCQQYSSFPYTFGGGTKVEIK
notes: Human IgG1 or IgG1null and human kappa constant regions
B13: hzJ48 VHv3 / hzJ48 VLv1.2 (N92Q) (antibody, V domains shown)
VH: B12 VH
VL: B12 VL with S92Q
notes: as for B12
B14: hzJ48 VHv3 / hzJ48 VLv1.3 (S93A) (antibody, V domains shown)
VH: B12 VH
VL: B12 VL with S92N, S93A
notes: as for B12

The binders below were run against T1, LRRC15 (leucine-rich repeat-containing …) (assay: binding analysis (koff and/or KD); method not named).

Kd | Binder
< 0.001 nM | B1
< 0.001 nM | B2

Each binder was assayed against T1, LRRC15 (leucine-rich repeat-containing …) (assay: binding analysis (koff and/or KD) of mAb expressed in CHO cells; method not named).

Kd | Binder
0.208 nM | B3
0.212 nM | B4
0.307 nM | B5
0.334 nM | B6
< 0.001 nM | B7
< 0.001 nM | B8
0.34 nM | B9
0.33 nM | B10
0.32 nM | B11
1.7 nM | B12
1.6 nM | B13
0.6 nM | B14
